Measurements reported in patent US6485904.

Key:
bovine plasminogen = bovine plasminogen (UniProt P06868)
[1] = biological target: bovine plasminogen (bovine) (UniProt P06868); assay: cell-based or functional assay
[2] = biological target: T1, bovine plasminogen, P06868
T1 chain: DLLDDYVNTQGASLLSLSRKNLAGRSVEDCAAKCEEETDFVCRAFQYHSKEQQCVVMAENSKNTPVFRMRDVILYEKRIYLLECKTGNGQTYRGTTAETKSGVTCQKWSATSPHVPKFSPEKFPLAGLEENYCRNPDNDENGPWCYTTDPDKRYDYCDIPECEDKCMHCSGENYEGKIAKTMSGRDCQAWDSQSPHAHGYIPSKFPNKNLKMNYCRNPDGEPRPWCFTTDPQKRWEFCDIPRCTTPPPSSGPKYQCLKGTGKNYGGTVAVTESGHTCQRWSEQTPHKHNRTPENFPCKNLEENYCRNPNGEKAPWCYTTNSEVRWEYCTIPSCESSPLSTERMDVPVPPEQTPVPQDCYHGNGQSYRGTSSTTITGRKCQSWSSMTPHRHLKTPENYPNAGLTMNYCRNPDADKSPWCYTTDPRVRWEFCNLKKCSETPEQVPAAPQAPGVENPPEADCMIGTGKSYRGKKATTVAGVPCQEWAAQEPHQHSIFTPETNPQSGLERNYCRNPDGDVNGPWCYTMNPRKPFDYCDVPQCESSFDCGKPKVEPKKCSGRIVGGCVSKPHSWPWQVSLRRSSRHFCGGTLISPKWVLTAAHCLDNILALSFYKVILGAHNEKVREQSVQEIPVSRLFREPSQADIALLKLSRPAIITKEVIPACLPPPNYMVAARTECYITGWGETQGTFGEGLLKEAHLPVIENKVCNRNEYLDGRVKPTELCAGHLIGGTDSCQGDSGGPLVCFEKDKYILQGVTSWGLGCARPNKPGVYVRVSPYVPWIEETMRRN

purified native PauA (strain not stated where used)
enzymatic activity, chromogenic assay titer (bovine plasminogen): titer=3256 | specific activity (bovine plasminogen): the specific activity for native PauA was 5.9 chromogenic units/µg

full-length recombinant PauA of S. uberis strain 95-140 expressed from pER330 in E. coli strain Pz330 (enzyme)
Titer, chromogenic assay of whole cell pellet (titer (inverse of dilution factor)) [1]: 1

full-length recombinant PauA of S. uberis strain 95-140 expressed from pER326 in E. coli strain Pz326 (enzyme)
Titer, chromogenic assay of whole cell pellet (titer (inverse of dilution factor)) [1]: 23.3

signal peptide-deleted recombinant PauA of S. uberis strain 95-140 expressed from pER328 in E. coli strain Pz328 (enzyme)
Titer, chromogenic assay of whole cell pellet (titer (inverse of dilution factor)) [1]: 5.3

B1: GST-PauA^28-286 fusion protein (pER356) (protein)
chain: GYDSDYYARYIDPDENKITFAINVDGFVEGSNQEILIRGIHHVLTNQNQKIVTKAELLDAIRHQMVLLQLDYSYELVDFAPDAQLLTRDRRLLFANRNFEESVSLEDTIQEYLLKGHVILRKRVEEPITHPTETANIEYKVQFATKDGEFHPLPIFVDYGEKHIGEKLTSDEFRKIAEEKLLQRYPDYMIDQKEYTIIKHNSLGQLPRYYSYPDDFSYEIQDRQRIMAKDPKSGKELGETQSIDNVFEKYLITKKSYKP
enzymatic activity, chromogenic assay titer [2]: titer=3448 | specific activity [2]: the specific activity of GST-PauA^28-286 was 1.4

B2: PauA from S. uberis strain c216 expressed by E. coli strain Pz318 (plasmid pER318) (protein)
chain: MKKWFLILMLLGIFGCATQPSKVAAITGYDSDYYARYIDPDENKITFAINVDGFVEGSNQEILIRGIHHVLTDQNQKIVTKAELLDAIRHQMVLLQLDYSYELVDFAPDAQLLTQDRRLLFANQNFEESVSLEDTIQEYLLKGHVILRKRVEEPITHPTETANIEYKVQFATKDGEFHPLPIFVDYGEKHIGEKLTSDEFRKIAEEKLLQLYPDYMIDQKEYTIIKHNSLGQLPRYYSYQDHFSYEIQDRQRIMAKDPKSGKELGETQSIDNVFEKYLITKKSYKP
zone of clearing on skim-milk plates with or without bovine plasminogen [2]: their ability to express plasminogen-dependent PauA activity was confirmed by their inability to produce a zone of clearing following growth of individual colonies on plasminogen-free skim-milk plates

B3: PauA from S. uberis strain 95-140 expressed by E. coli strain Pz319 (plasmid pER319) (protein)
chain: MKKWFLILMLLGIFGCATQPSKVAAITGYDSDYYARYIDPDENKITFAINVDGFVEGSNQEILIRGIHHVLTNQNQKIVTKAELLDAIRHQMVLLQLDYSYELVDFAPDAQLLTRDRRLLFANRNFEESVSLEDTIQEYLLKGHVILRKRVEEPITHPTETANIEYKVQFATKDGEFHPLPIFVDYGEKHIGEKLTSDEFRKIAEEKLLQRYPDYMIDQKEYTIIKHNSLGQLPRYYSYPDDFSYEIQDRQRIMAKDPKSGKELGETQSIDNVFEKYLITKKSYKP
zone of clearing on skim-milk plates with or without bovine plasminogen [2]: their ability to express plasminogen-dependent PauA activity was confirmed by their inability to produce a zone of clearing following growth of individual colonies on plasminogen-free skim-milk plates
